Measured values: patent publication US20060052291A1

T1: human G-CSF receptor on transfected mouse BaF3 cells (mBaF3/hG-CSFR) (human) (UniProt Q99062)
T1 sequence (looked up): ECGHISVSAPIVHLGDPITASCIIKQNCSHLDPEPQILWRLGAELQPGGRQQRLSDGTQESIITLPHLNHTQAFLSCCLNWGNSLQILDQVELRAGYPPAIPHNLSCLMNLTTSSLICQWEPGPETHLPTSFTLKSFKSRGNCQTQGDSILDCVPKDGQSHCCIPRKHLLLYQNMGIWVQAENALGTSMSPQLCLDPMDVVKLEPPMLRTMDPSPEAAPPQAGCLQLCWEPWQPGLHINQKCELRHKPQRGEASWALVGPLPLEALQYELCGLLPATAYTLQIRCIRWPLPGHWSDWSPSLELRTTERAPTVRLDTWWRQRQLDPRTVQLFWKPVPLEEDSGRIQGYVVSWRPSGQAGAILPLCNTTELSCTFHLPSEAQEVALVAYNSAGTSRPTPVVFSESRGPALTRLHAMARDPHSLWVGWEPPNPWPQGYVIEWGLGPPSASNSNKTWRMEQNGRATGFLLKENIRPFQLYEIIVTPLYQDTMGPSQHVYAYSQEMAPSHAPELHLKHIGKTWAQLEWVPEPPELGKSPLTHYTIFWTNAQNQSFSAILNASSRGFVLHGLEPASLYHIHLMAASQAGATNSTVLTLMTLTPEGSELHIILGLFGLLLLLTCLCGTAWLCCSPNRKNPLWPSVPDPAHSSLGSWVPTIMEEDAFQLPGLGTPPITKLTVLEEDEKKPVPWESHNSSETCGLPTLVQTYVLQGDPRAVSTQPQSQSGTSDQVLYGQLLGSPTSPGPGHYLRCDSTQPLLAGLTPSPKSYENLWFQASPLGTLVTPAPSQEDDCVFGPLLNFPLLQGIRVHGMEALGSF

T2: chimeric Flt3/G-CSF receptor on transfected mouse Baf/3 cells (human) (UniProt P36888)
T2 sequence (looked up): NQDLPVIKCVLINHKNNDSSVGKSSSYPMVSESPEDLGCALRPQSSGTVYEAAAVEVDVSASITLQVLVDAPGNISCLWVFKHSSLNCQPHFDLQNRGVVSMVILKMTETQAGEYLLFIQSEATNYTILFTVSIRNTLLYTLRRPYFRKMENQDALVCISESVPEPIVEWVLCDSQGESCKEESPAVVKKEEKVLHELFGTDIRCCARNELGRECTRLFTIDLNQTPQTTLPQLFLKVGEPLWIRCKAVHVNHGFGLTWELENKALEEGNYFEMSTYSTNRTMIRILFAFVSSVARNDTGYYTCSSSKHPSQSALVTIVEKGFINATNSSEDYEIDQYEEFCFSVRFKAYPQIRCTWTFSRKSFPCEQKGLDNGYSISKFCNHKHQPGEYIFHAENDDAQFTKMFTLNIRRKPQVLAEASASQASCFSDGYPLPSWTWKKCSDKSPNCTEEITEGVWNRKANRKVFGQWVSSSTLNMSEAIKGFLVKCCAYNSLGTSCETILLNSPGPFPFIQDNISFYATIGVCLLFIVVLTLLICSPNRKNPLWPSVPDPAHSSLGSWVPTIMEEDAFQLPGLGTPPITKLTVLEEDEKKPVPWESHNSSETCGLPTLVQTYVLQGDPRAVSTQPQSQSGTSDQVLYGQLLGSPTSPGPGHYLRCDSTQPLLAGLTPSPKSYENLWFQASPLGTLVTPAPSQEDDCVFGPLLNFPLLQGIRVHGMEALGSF

B1: recombinant human flt3 ligand (ligand, UniProt P49771 27-185, looked up)
chain: TQDCSFQHSPISSDFAVKIRELSDYLLQDYPVTVASNLQDEELCGGLWRLVLAQRWMERLKTVAGSKMQGLLERVNTEIHFVTKCAFQPPPSCLRFVQTNISRLLQETSEQLVALKPWITRQNFSRCLELQCQPDSSTLPPPWSPRPLEATAPTAPQPP

Columns and labels:
[1] = target: T1, human G-CSF receptor on transfected mouse BaF3 cells (mBaF3/hG-CSFR) (human); assay: cell-based or functional assay
[2] = target: T2, chimeric Flt3/G-CSF receptor on transfected mouse Baf/3 cells (human); assay: cell-based or functional assay

Molecule	Average EC50 (n = 9), BAF3/G-CSF cell proliferation ([3H]-thymidine) [1]	Average Rel. Potency, BAF3/G-CSF cell proliferation [1]	Average EC50 (n = 12), BAF3/Flt cell proliferation ([3H]-thymidine) [2]	Average Rel. Potency, BAF3/Flt cell proliferation [2]
recombinant human G-CSF (from UniProt P09919 31-204) (ligand)	0.025 nM	1	> 200 nM	–
B1	> 2 nM	–	0.03 nM	1
